Reference: the supplement of paper PMC9732359
± gives the uncertainty stated by the source.

Assay: protein stability index of a GFP-peptide fusion (yeast GPS) (PSI 1-4); higher = more stable; sorted into four equal gates, so the index is relative within each strain
Outline: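 Plasmids in a pooled yeast library fused tiled 17-residue yeast protein peptides downstream of GFP and also expressed Cherry. Mid-log cultures grown without leucine were sorted into four equal gates by GFP/Cherry fluorescence ratio. Each gate's plasmids were PCR-amplified and Illumina-sequenced, and reads were matched to strains by barcodes. The protein stability index is derived by multiplying each gate's read frequency by its gate number and summing the results.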

Row | Sequence | protein stability index (doa10∆) | protein stability index (pdr5∆) | protein stability index (san1∆) | protein stability index (ubr1∆)
1 | KKQQAALTNELNELKAI [YIL149C/MLP2] | 1.42 ± 0.052 | 1.86 ± 0.07 | 1.83 ± 0.092 | 1.55 ± 0.051
2 | HGMFSSASVRALIENWA [FAS1] | 1.48 ± 0.11 | 1.84 ± 0.12 | 1.48 ± 0.17 | 1.76 ± 0.064
3 | DHRKRKKSKIQLLDIAE [LIN1] |  | 2.8 ± 0.23 | 3.19 ± 0.17 | 3.32 ± 0.18
4 | GRGLWNPSYPGMMSTTG [YJL039C/NUP192] | 2.99 ± 0.092 | 3.12 ± 0.053 | 3.14 ± 0.074 | 3.1 ± 0.097
5 | LSALDHYERTQTKENKR [RPN8] | 2.91 ± 0.077 | 2.82 ± 0.087 | 2.71 ± 0.073 | 2.68 ± 0.057
6 | KIYDAFPQTAMLRRHAA [DIS3] | 2.41 ± 0.086 | 2.71 ± 0.079 | 2.58 ± 0.12 | 2.4 ± 0.061
7 | LVEEFMLLANISVARKI [DIS3] | 1.3 ± 0.062 | 1.84 ± 0.092 | 1.77 ± 0.16 | 2.18 ± 0.055
8 | LVEYGFDPSRIKDLKQR [SMC2] | 2.04 ± 0.049 | 2.57 ± 0.074 | 2.16 ± 0.082 | 2.51 ± 0.064
9 | RLPTFLKHKSICSCVNR [RPP1] | 1.84 ± 0.086 | 2.24 ± 0.11 | 1.98 ± 0.13 | 2.83 ± 0.08
10 | FLRKATAFNKTRGPFHF [RPL16B] | 3 ± 0.042 | 3.12 ± 0.045 | 2.78 ± 0.043 | 3.08 ± 0.033
11 | ANNASQITPTVPHSHPS [SNF12] | 2.77 ± 0.053 | 3 ± 0.064 | 2.82 ± 0.052 | 2.9 ± 0.052
12 | DSKDGTTLNIKVEKRVL [SMB1] |  | 3.66 ± 0.22 |  | 3.45 ± 0.27
13 | HFTSPIRRYCDVVAHRQ [DIS3] | 2.04 ± 0.082 | 2.21 ± 0.066 | 2.06 ± 0.1 | 1.84 ± 0.073
14 | TEISPMAGSQFENGNIT [RRP45] | 2.6 ± 0.063 | 2.5 ± 0.05 | 2.86 ± 0.058 | 2.71 ± 0.062
15 | FSKILPAALDGLMKSYK [ESC2] | 2.71 ± 0.059 | 2.28 ± 0.069 | 2.73 ± 0.051 | 2.54 ± 0.056
16 | ILQYSRTWYESFCGFLL [YJR042W/NUP85] | 2.11 ± 0.061 | 1.72 ± 0.049 | 1.39 ± 0.14 | 1.42 ± 0.067
17 | ADWDPESMAYTAFQTQR [YML031W/NDC1] | 2.89 ± 0.14 | 3.34 ± 0.11 | 3.24 ± 0.17 | 3.36 ± 0.12
18 | LYFPDDYPFTQLGYIEN [POP1] | 2.71 ± 0.12 | 3.18 ± 0.074 | 3.1 ± 0.071 | 3.16 ± 0.068
19 | ADLQGSEDHSFRKIKLR [RPS1A] | 3.17 ± 0.051 | 3.13 ± 0.061 | 3.06 ± 0.047 | 3.15 ± 0.048
20 | NRSAYDSKNTPNVFDKD [YDL088C/ASM4] | 2.41 ± 0.1 | 2.72 ± 0.075 | 2.9 ± 0.074 | 2.92 ± 0.091
21 | QLLLLSDERAKLELINR [LRP1] | 2.93 ± 0.092 | 3.06 ± 0.18 | 2.99 ± 0.11 | 2.99 ± 0.18
22 | FQSQQRRKDTSMVLFFV [RPB9] | 1.55 ± 0.083 | 1.57 ± 0.14 | 1.62 ± 0.16 | 1.46 ± 0.044
23 | SKVYFNNQSKEKADYED [RPN12] | 2.56 ± 0.076 | 2.64 ± 0.067 | 2.67 ± 0.098 | 2.48 ± 0.054
24 | KTFCEDPFSDVDDDQDY [GRR1] | 3.46 ± 0.17 | 3.31 ± 0.099 | 3.32 ± 0.048 | 3.46 ± 0.1
25 | EDEVKVEGPKFTIDAKP [YLR335W/NUP2] | 3.54 ± 0.15 | 3.52 ± 0.2 | 3.45 ± 0.071 | 
26 | AKAKAVTSKVRNAEFKV [YMR153W/NUP53] | 1.38 ± 0.15 | 1.67 ± 0.13 |  | 1.3 ± 0.13

Row | Sequence | protein stability index (doa10∆) | protein stability index (pdr5∆) | protein stability index (san1∆) | protein stability index (ubr1∆)
27 | PQRCTFAFEAIDPRHLA [POP1] | 2.55 ± 0.095 | 3.01 ± 0.077 | 2.73 ± 0.087 | 3.1 ± 0.051
28 | YHSKRDASTPLRSTENG [RPB2] | 3.12 ± 0.1 | 3.32 ± 0.071 | 3.12 ± 0.055 | 3.33 ± 0.05
29 | SDAKEQHQSLSRSSSKN [ESC2] | 2.85 ± 0.14 | 3.21 ± 0.14 | 3.26 ± 0.074 | 3.27 ± 0.11
30 | IQHIAAAMVPFIKFKLI [CDC53] | 2.42 ± 0.048 | 2.42 ± 0.043 | 2.42 ± 0.056 | 2.43 ± 0.048
31 | RSRISSPHGLINLNVDD [SRB4] | 2.47 ± 0.052 | 2.48 ± 0.061 | 2.61 ± 0.075 | 2.15 ± 0.043
32 | HNGREGSIEEPELNVSL [MCD1] | 3.31 ± 0.3 | 3.5 ± 0.15 | 3.07 ± 0.12 | 3.37 ± 0.071
33 | NNLHELWALLNFLLPDI [ISW2] | 2.59 ± 0.052 | 2.07 ± 0.049 | 1.89 ± 0.07 | 2.63 ± 0.041
34 | LVQLSTMETKTLPEKKQ [SIR4] | 2.88 ± 0.063 | 2.9 ± 0.069 | 2.72 ± 0.052 | 2.99 ± 0.059
35 | LTMHKIIQLILWSIHPS [SRB8] | 1.62 ± 0.047 | 1.53 ± 0.047 | 1.61 ± 0.088 | 1.53 ± 0.044
36 | VSSPESEKNKRQSKSSG [ITC1] | 3.03 ± 0.059 | 3.17 ± 0.052 | 2.98 ± 0.045 | 3.14 ± 0.038
37 | ILRQRGPGFKFVDLNEK [SRB4] | 2.57 ± 0.11 | 1.64 ± 0.076 | 1.44 ± 0.21 | 1.75 ± 0.079
38 | SSSAQQTKSNGTAGGNT [YJL041W/NSP1] | 3.32 ± 0.12 | 3.46 ± 0.16 | 3.36 ± 0.078 | 3.28 ± 0.085
39 | ADPVALYLGLKRGEVVK [RPB5] | 1.67 ± 0.24 | 1.6 ± 0.15 | 1.32 ± 0.14 | 1.37 ± 0.13
40 | LVGRKPAEHPFISAARY [RPC37] | 2.23 ± 0.14 | 1.86 ± 0.074 | 2.08 ± 0.15 | 2.54 ± 0.084
41 | VRAVSITSFGFGQKGGQ [FAS2] | 2.92 ± 0.19 | 2.96 ± 0.23 | 1.74 ± 0.21 | 3.31 ± 0.27
42 | YPVVEVERGRVGACTDE [RRP43] | 3.24 ± 0.1 | 2.8 ± 0.25 | 3.16 ± 0.23 | 3.03 ± 0.091
43 | LRDSLADKIVDEFPELK [NUT2] | 2.76 ± 0.098 | 2.41 ± 0.069 | 1.97 ± 0.23 | 1.44 ± 0.051
44 | FAADGDALVKRFKNSVK [PRE7] | 2.64 ± 0.28 |  |  | 
45 | GKLVESEDSMNVQLRDV [SMD3] | 3.26 ± 0.14 | 3.32 ± 0.1 | 3.33 ± 0.065 | 3.26 ± 0.041
46 | ITHKLTKNDAGSKQILK [BRR2] | 3.07 ± 0.071 | 3.43 ± 0.079 | 3.21 ± 0.036 | 3.23 ± 0.055
47 | QFIYAGKKASLNVGNVL [RPL2A] | 2.59 ± 0.092 | 2.81 ± 0.11 | 2.86 ± 0.11 | 2.8 ± 0.092
48 | PARSSSLRSNVVVAETS [YAR002W/NUP60] | 2.2 ± 0.04 | 2.62 ± 0.04 | 2.19 ± 0.058 | 2.58 ± 0.035
49 | GALHFVQQSEKLRNEVE [YIL149C/MLP2] | 3.17 ± 0.14 | 3.16 ± 0.22 |  | 3.16 ± 0.12
50 | SCQGNVIYRNSLYKVSF [YMR129W/POM152] | 2.54 ± 0.064 | 2.76 ± 0.068 | 2.56 ± 0.064 | 2.71 ± 0.094
51 | LDQTKDTRITHLLRQTN [SNF2] | 1.34 ± 0.036 | 1.41 ± 0.034 | 1.54 ± 0.061 | 1.32 ± 0.029
52 | EEFRNLAALNVWYGLSD [SSN2] | 3.37 ± 0.14 | 2.8 ± 0.13 | 2.39 ± 0.12 | 2.94 ± 0.074
